# Results from publication PMC10773984.
# Assays:
# [1] = molecular target: p53-like peptide W23A, displayed on E. coli; experiment: flow cytometry on cells
# [2] = molecular target: p53-like peptide F19A, displayed on E. coli; experiment: flow cytometry on cells
substance,measurement,setting,value
Mdm2-GST (from UniProt Q00987 1-491) (natural protein),relative Kd (against the wild type p53-like peptide),[1],> 10000
same,relative Kd (against the wild type p53-like peptide),[2],> 10000
